In CN106146662A (UNIV SUN YAT SEN, dated 2016):

T1: CD3-His蛋白(MP-5)
T1 chain: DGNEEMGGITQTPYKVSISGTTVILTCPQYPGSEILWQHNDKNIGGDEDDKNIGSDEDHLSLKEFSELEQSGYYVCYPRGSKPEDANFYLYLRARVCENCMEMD


What was measured:
CD3 on Jurkat cells = assay: flow cytometry, culture supernatant on Jurkat cells
CD3-His蛋白(MP-5) = biological target: T1, CD3-His蛋白(MP-5); assay: BLI (Octet RED96) off-rate screen, sdAb-SASA from expression medium captured on BSA-coated biosensor, 100 nM CD3 in solution, 1:1 Langmuir model, 30°C

Row | Binder | MFI (CD3 on Jurkat cells) [MFI] | koff (CD3-His蛋白(MP-5)) [s⁻¹]
1 | C62 (VHH, Llama sdAb tested as sdAb-SASA protein in crude expression medium / culture supernatant; 1 nowhere in its text; also called 抗CD3单域抗体; sdAb; not shown: SASA fusion partner from the pFASEBA vector (sdAb-SASA protein)) VHH: QVQLQESGGGLVQAGGSLRLSCAASGRTFSNYHMGWFRQAPGKERELVAAISGSGGSTYYTDSVKGRFTISRNNAKNTMSLQMSNLKPEDTGVYYCTTPTEKGSSIDYWGQGTQVTVSS | 283 | 5.32e-05
2 | C84 (VHH, Llama sdAb tested as sdAb-SASA protein in crude expression medium / culture supernatant; 3 nowhere in its text; also called 抗CD3单域抗体; sdAb; not shown: SASA fusion partner from the pFASEBA vector (sdAb-SASA protein)) VHH: QVQLQESGGGLVQAGGYLRLSCAVSGRTFSSYAMGWFRQAPGKEREFVAAINWSGGSTYYVDSVKGRFTISRDNAKNTVYLQMNSLKPEDTAVYYCAASGLGYTIVSASEYDYWGQGTQVTVSS | 312 | 2.84e-05
